Data from the Human Domainome abundance scans (Beltran et al. 2025).
± gives the uncertainty stated by the source.

B1: Glucocorticoid receptor, residues 419 to 494; numbered along this chain, P04150 (parent)
chain: KLCLVCSDEASGCHYGVLTCGSCKVFFKRAVEGQHNYLCAGRNDCIIDKIRRKNCPACRYRKCLQAGMNLEARKTK

Variants of: B1
Assay: abundance fitness (aPCA) (normalised: wild type 0, dead -1); higher = more abundant; growth selection in yeast, the domain comes from the species named
Settings: Homo sapiens

Variant | abundance fitness
K1R | -0.141 ± 0.043
A40H | -0.192 ± 0.094
R51L | -0.031 ± 0.041
C58L | -0.789 ± 0.084
E32L | -0.073 ± 0.032
R61L | 0 ± 0.039
H35Q | -0.044 ± 0.048
R42I | -0.062 ± 0.089
I46N | -0.002 ± 0.074
I47F | -0.449 ± 0.11
G41E | -0.043 ± 0.045
E71Q | -0.051 ± 0.063
N43F | -0.02 ± 0.06
A10F | -0.362 ± 0.075
K62A | -0.015 ± 0.034
K49D | -0.164 ± 0.069
S11N | 0.018 ± 0.07
K1G | -0.123 ± 0.047
T75L | 0.054 ± 0.043
K28T | 0.001 ± 0.042
V25Q | 0.015 ± 0.087
H35F | 0.013 ± 0.078
T75N | 0.014 ± 0.074
E71D | 0.008 ± 0.048

Variant | abundance fitness
P56G | -0.085 ± 0.031
F27E | -1.01 ± 0.16
E32N | -0.059 ± 0.059
V17E | -0.389 ± 0.062
N69M | -0.022 ± 0.048
T19H | -0.311 ± 0.1
V25A | 0.045 ± 0.056
R29Y | -0.072 ± 0.1
D44R | -0.088 ± 0.037
R59K | -0.52 ± 0.078
F27V | -0.386 ± 0.041
N54D | -0.015 ± 0.061
A30V | 0.026 ± 0.037
K49L | -0.054 ± 0.035
V5N | -0.703 ± 0.23
G33R | -0.048 ± 0.03
L70S | 0.052 ± 0.039
T75V | -0.064 ± 0.048
V31W | -0.07 ± 0.044
Q34I | -0.188 ± 0.093
L64P | -0.682 ± 0.13
R73T | 0.024 ± 0.051
T19I | -0.057 ± 0.07
L2D | -0.045 ± 0.066

Variant | abundance fitness
I50E | -0.028 ± 0.047
A10P | 0.004 ± 0.049
V25M | -0.094 ± 0.067
E32R | -0.021 ± 0.032
V5W | -0.952 ± 0.14
H14G | -0.187 ± 0.031
R73M | 0.012 ± 0.05
C58W | -1.08 ± 0.22
C20K | -0.948 ± 0.17
A30D | -0.701 ± 0.2
L38I | -0.043 ± 0.073
C13F | -0.005 ± 0.074
G21I | -0.088 ± 0.099
R61C | -0.112 ± 0.058
Q34C | -0.028 ± 0.078
S11L | 0.033 ± 0.036
G33T | -0.139 ± 0.055
I50M | 0.055 ± 0.048
L38N | 0.02 ± 0.072
A30S | -0.08 ± 0.042
S7M | -0.06 ± 0.051
T19E | -1.03 ± 0.19
K28G | -0.051 ± 0.031
K24H | -0.026 ± 0.069

Variant | abundance fitness
Q34W | -0.136 ± 0.046
K74P | -0.049 ± 0.056
A10W | -0.625 ± 0.074
A66H | -0.052 ± 0.051
D8T | -0.195 ± 0.056
K74V | -0.008 ± 0.044
C55H | -0.911 ± 0.44
N43G | -0.024 ± 0.03
L4T | 0.004 ± 0.04
Y15V | -0.208 ± 0.038
G33F | -0.052 ± 0.083
R73F | -0.059 ± 0.059
T19R | -0.929 ± 0.099
E9V | 0.031 ± 0.035
C13Q | 0.001 ± 0.049
G67Q | -0.371 ± 0.081
K1D | -0.002 ± 0.083
T75H | -0.038 ± 0.078
R73Q | -0.061 ± 0.058
Y37I | -0.08 ± 0.093
C3T | -0.818 ± 0.22
K62C | 0.007 ± 0.062
C6L | -0.992 ± 0.12
H14M | -0.163 ± 0.049

Variant | abundance fitness
A10Q | -0.111 ± 0.05
Q65E | -0.06 ± 0.061
C13E | 0.04 ± 0.04
K28C | -0.121 ± 0.069
S7E | 0.012 ± 0.042
G67N | -0.226 ± 0.1
H35P | 0.003 ± 0.046
T75R | -0.01 ± 0.04
A10G | -0.122 ± 0.042
L70V | 0.021 ± 0.032
A40V | 0.019 ± 0.034
R29Q | -0.072 ± 0.045
C63Y | -0.85 ± 0.22
M68K | -0.632 ± 0.16
I50S | 0.015 ± 0.04
K28L | -0.022 ± 0.036
A66K | 0.024 ± 0.058
K74T | -0.034 ± 0.054
Q34R | 0.002 ± 0.032
A10N | -0.274 ± 0.07
C13T | 0.003 ± 0.038
R73L | -0.04 ± 0.033
R42S | 0.001 ± 0.035
N43K | 0.013 ± 0.041

Variant | abundance fitness
G16E | -0.251 ± 0.05
K76F | 0.006 ± 0.11
T19M | -0.176 ± 0.059
N36W | -0.151 ± 0.045
G12H | -0.096 ± 0.11
C6S | -1.22 ± 0.25
H14D | -0.016 ± 0.057
A30T | -0.064 ± 0.05
T19L | -0.184 ± 0.037
L70H | 0.01 ± 0.073
L18D | 0.062 ± 0.062
A66P | -0.859 ± 0.14
V25D | 0.017 ± 0.086
Q65L | -0.035 ± 0.035
N36I | -0.054 ± 0.078
Y15P | -0.134 ± 0.048
C45I | -0.948 ± 0.3
E9N | 0.12 ± 0.063
K62W | -0.505 ± 0.064
D48I | -0.579 ± 0.17
S7Y | -0.109 ± 0.053
C3I | -0.684 ± 0.2
A10S | -0.079 ± 0.041
A30P | -0.907 ± 0.19

Variant | abundance fitness
E9T | 0.089 ± 0.045
C3R | -0.771 ± 0.081
C23R | -0.056 ± 0.36
R51Q | -0.002 ± 0.05
R29F | -0.152 ± 0.076
V25I | 0.021 ± 0.075
F27C | -0.518 ± 0.11
E32D | -0.015 ± 0.07
C39T | -0.553 ± 0.21
E71N | -0.017 ± 0.065
N69K | 0.001 ± 0.048
Y37P | -0.104 ± 0.054
A66Y | -0.014 ± 0.065
R61Q | 0.101 ± 0.048
E71T | -0.076 ± 0.053
I50Y | -0.143 ± 0.21
G16C | -0.483 ± 0.12
P56S | -0.035 ± 0.038
A30Q | -0.192 ± 0.049
E71W | -0.106 ± 0.04
D44Q | -0.026 ± 0.055
K28Y | 0.001 ± 0.069
I46Q | 0.064 ± 0.049
